The record followed here is article PMC8531335, “Point mutations in Candida glabrata 3-hydroxy-3-methylglutaryl-coenzyme A reductase (CgHMGR) decrease enzymatic activity and substrate/inhibitor affinity” (Scientific Reports, 2021).

For this data set, the system named is CC(C)(COP(=O)(O)OP(=O)(O)OC[C@H]1O[C@@H](n2cnc3c(N)ncnc32)[C@H](O)[C@@H]1OP(=O)(O)O)[C@@H](O)C(=O)NCCC(=O)NCCSC(=O)C[C@@](C)(O)CC(=O)O. Briefly: purified protein. The class given is biochemical, Nakaseomyces glabratus. Particulars: NADPH co-substrate, Tris-HCl; HMG-CoA 1-64 µM; MBP fusion.
As usually defined, the Km is the concentration of substrate that gives half-maximal velocity. For “CgHMGR (Rec-MBP-CgHMGR, catalytic domain of Candida glabrata HMGR) (Nakaseomyces glabratus CBS 138; E711Q)”, the Km is 18 µM.
Regarding “CgHMGR (Rec-MBP-CgHMGR, catalytic domain of Candida glabrata HMGR) (Nakaseomyces glabratus CBS 138; D805A)”, the Km amounted to 11.84 µM.
Consider “CgHMGR (Rec-MBP-CgHMGR, catalytic domain of Candida glabrata HMGR) (Nakaseomyces glabratus CBS 138; E680Q)”, for which the Km came out at 8.31 µM.
